In the DeepSol protein solubility set:

Assay: soluble on expression in E. coli; label from the status in PepcDB or PDB records

Sequence | soluble on expression in E. coli
MTVTSSAAIDIGGGGGGRRSDRLDSDRTSEDMSFIASPANIGASFVDVQNESSGSIDTATATLHELNYTFGMPPVTEESENMPQNYETVVELLPGEERAPINKLTEFPIEGGSLFVTNFRIVVILKDKEVEEALRFLVFPLQDIEQIDLAIPAFIHLSLKIGRMFTICFKTAEDAALVHKILYTAFQRLNRPISSIYTSRPQDWTSKNTDNPMQSLNAFAWKFSEAVDELDRDGKLPSWLLRADSVAQEITHIDFNRLGMSEHFQISSVNENFEVCPTYPEKIIVPKGITDDDIRKGAPYRSIGRFPAVIWRCRKTRAVLMRSSQPQVGILSWRNPTDEKIIEEAVKASRIEGEEKKQFIIMDARGYTSAFANRARSGGFENTEYYQQAKLEFLGLPNIHAVRGSFNNVRTMLHNLGPNEQLLTSLQTTGWLLNLSNLLVNAANCADHLSKGHSVLVHCSDGWDRTTQVTTLAKIMLDEYYRTVKGFEELIRRDWIAFGHKLYDRQLVAFGNWGTSDERSPVFLQFLEAVRHLQREQPTLFQFTHAYLIKLAKHAYSGLFGSFLFNSHKERREAMEKCKGTLVDIWRFIGPHNEEYVNQSFDEHYTGAVKPQIFSPKEERPLSGCTTPMNTSTSTNLVKSKSSESINSLNVDGSAKESSQQHPTCSTTPSDNTNSLPMSTSFIQQSLYQPKVRGVAAIDRDGVIRFEDDEQAMLRKKNKLRAEEIRRKDEKIEELRRRAVLDTNKVSPGQRQSYSESDVETTGTLERVMSDVSMVDPVNELPHFKPNTTWEGESGHCAYCKKEFNKLSVYVEDRQHHCRNCGRVVCEDCSKNRFSVIEEGKSVQKRACDSCYDSMHETDLKLSRATSLSEMSSFDSFGPSSPPASSTSSSSLNMLASMSPTRPQPIPISCKSSSNSISSPRPSPGEFSRHSSTQAVKG | not soluble
MIVGIGIDIIELNRIEKMLDGKLKFMERILTENERNVAKGLKGSRLTEFVAGRFAAKEAYSKAVGTGIGKEVSFLDIEVRNDDRGKPILITSTEHIVHLSISHSKEFAVAQVVLESSSS | not soluble
MSLKYDLKYLSVPLPEEIQRVKEFGDFASADIAIDFWLTKELPQALKERLIIEKDVIKMMRMNEYPHSFAKADQMMRDTFQDYQTEELIRLKETGLVDWVYIDGEPYFQLRFLANLIKTNAAYVARLREAESNQLEILRKKELKENIEQMQKNGGRKVRTTIKATIQVKKEFERPGERVRVHLPLPKACQQQSEIEILATSPEATYIAAEDAPQRTLCFETILKENQTFTVEYCYVNRMVYQQLEENNVDKMQPSFDLEEQLPHIRFTPYLRNLADEIVGDESNPLKKARLIYDFVTTKIHYSFMREYFTISNISEYAATNLKGDCGVQAILFITLCRIAGIPAKWQSGLYVSTHYTGCHDWAQFYIKPYGWLFADLSFGGGAYRDGDRQRWNHYFGNLDVFRMVANSEIQADFQPAKMQLRADPIDNQRGEFEYENEGLPYACLIVSQERLSMEELPFDEGGSHHHHHH | soluble
MLPVQILKDNAQEERGESARLSSFVGAIAIGDLVKSTLGPKGMDKILISGNPESAGGIKVTNDGATILKSIGVDNPAAKVLVDMSMTQDHEVGDGTTSVTVLAAELLKEAEKLVNQRIHPQTIISGYRRALGIAQESLKKSSIESGDNIRDDLLKIARTTLGSKILSQHKEHFAQLAVDAVLRLKGSGNLDAIQIIKKLGGSMNESYLDEGFLLEKLPGMFQPRRVEKAKILIANTPMDTDKVKVFGSRVRVDGVAKVAELEAAEKLKMKEKVDKILAHNCNVFINRQLIYNYPEQLFADAKVMAIEHADFEGIERLALVLGGEIVSTFDSPQTAQFGSCDLIEEIMIGEDRLLRFSGVKLGEACSVVLRGATQQILDESERSLHDALCVLVTHVKESKTVAGAGASEILMSSAIAVEAQKVAGKEALAVEAFGRALAQLPTIICDNAGLDSAELVTRLRAEHANGRHNMGIDIEKGEVADVTKLGVIESYNVKLCMVSSAAEATEQILRVDDIIKAAPRARAQDNRPC | not soluble
RSTDTFNYATYHTLEEIYDFLDLLVAENPHLVSKIQIGNTYEGRPIYVLKFSTGGSKRPAIWIDTGIHSREWVTQASGVWFAKKITQDYGQDAAFTAILDTLDIFLEIVTNPDGFAFTHSTNRMWRKTRSHTAGSLCIGVDPNRNWDAGFGLSGASSNPCSETYHGKFANSEVEVKSIVDFVKDHGNIKAFISIHSYSQLLMYPYGYKTEPVPDQDELDQLSKAAVTALASLYGTKFNYGSIIKAIYQASGSTIDWTYSQGIKYSFTFELRDTGRYGFLLPASQIIPTAKETWLALLTIMEHTLNHP | soluble
MSLKRLACYIRVSSNKDDQQSSLIQQETLLREKFKQEDLIIYSDTGTGVSFNREGFKRLMYDAGLNICKLNDGRITFEADNIRKPIFDEIVVINTSRFSRNIAIIDILRVLWDYKKINVHFLDNCKNSNNPNDMTVLKMFFSMAENESMETSNRTKRGNEISILDNTIRNNSIFGWDFDREKNYLKINKKEAEIVRFIFKTALTNGLKMTAKIVNEKGYRTKKNRLWSSSTIKTLIVNPKYKGYNVRNKYSNENMFTGVKSKYVKKENWIIQKNNRIEPIVSEELWEEVQRALESRCLHGNREGHHHHHH | soluble
MGHHHHHHSHMSDWEDDDFEPEVSTFKRAEPAPEPVKIVDAPPPPQKAAPAAPKTLKAAPTFAMESLGRELTSAEKEAIQKKNDLALARDLFGDDDSAEATDEAKTYANIMSKADFEYWGERVGGFLASRSKASCYGDMIGKLLTSVTDEMTPAEILKMVTFLQQISAAKKTAEKTKAKATTAAKPAAAANKKNAKATLKVTKGNDSMYDDYGDDQDDYDDY | soluble
MGSDKIHHHHHHMAERLGILVGGGPAPGINSVISSVTIEAINNGLEVIGIYDGFKHLVEGKTNMVKKLSIEDVSRIHIEGGSILRTSRVNPAKSEETLEKTVQTLKKLGIKYLVTIGGDDTAFSASKVCERSKGEIKVVHVPKTIDNDLPLPENMPTFGFETARHVATELVYNLMQDSRTTNRWYFVAMMGREAGHLALGVGKAASATITIIPEEFKEGVTLEEVCDVLDGAILKRKLMGRDDGVAVIGEGIAEKMDPEELANIPGVIVEKDPHGHLRLAEIPLATILKRAIERRYAERGERIHIVDVTIGYELRSARPIPFDIVYTRTLGYGAVRFLLGDYSDLPGGMVCVVGGRIKILPFDAFMDPKTGRTKVRVVDVRSEDYRVARKYMIRLEKKDLEDPETLEKLAKLAKMEPEEFKKKYWHTTELP | not soluble
MHVNKKIIYVSHDAHFHGAQLLSLHTIKALKENFHYSVAIISIRTGILIHDFQKYGPVYCLEEDYPTENKVESLIKKLLSQDYTIAICSTVISGDIVALLAKHNIKVISLIHELPHLIQQYSAEGKARKIAESAHKIVFPSQYVYEKFHTITQLDHQKCHILPQGLFNHNPYKNNIAKARNELRKKHNLPLDSKIILGVGFADHRKGIDLFSLIAYSVRKIHKNIHFIWVGKTDVHFLNTLSQRYTAHFTLVEPTPDIGLYNAGADLYLLTSREDPFPNVVLEALDTKVPVIGFKNAGGFGDVVTEQTGALVDYLNLPMMLEKIYEFIGDEDLRLQKGTFGQELIEKNFNFLHYIYQLLNLLEHNYKKISVIVPNYNYEKYLSERVKSILNQTYPLYELIFLDDASTDNSVSIFEKLLSNENKHHLKIQQIINDKNSGSVFKQ | not soluble
MPRIVFDCLIDQPAARHLIERIDALTALLVRDNVVYSAHVDHQPQSPQPDSVREELTTTYLRDRGAETADELSDSVVALDELSLQRFTIVVDGLNGSLNETAMTYSRLLTPAARLSNDALDLTDEQRYEVPAAYPWTVFVSA | not soluble
MTITSLDGYRWLKNDIIRGNFQPDEKLRMSLLTSRYALGVGPLREALSQLVAERLVTVVNQKGYRVASMSEQELLDIFDARANMEAMLVSLAIARGGDEWEADVLAKAHLLSKLEACDASEKMLDEWDLRHQAFHTAIVAGCGSHYLLQMRERLFDLAARYRFIWLRRTVLSVEMLEDKHDQHQTLTAAVLARDTARASELMRQHLLTPIPIIQQAMAGN | soluble
SNANVGVFVLMHGDSTASSMLKTAQELLGTSIGTAMNMPLTMEVQTMYEQLRNQVITQKESLNNGILLLTDMGSLNSFGNMLFEETGIRTKAITMTSTMIVLEAIRMASVGRSLEDIYQNIQLSFESVVREQFRSSLQK | soluble
MRNTDRKRAQGVSRLDRRDSRMRRVGTYGGRKLIEYDQERWNILAEKRERAKEVMESLLSFGIESVVYGSVARGDVNEKSDVDIFIPEVIPSYKVEVALDGFEVLEKRIVQATPNYAIKGEFVLSDNTTVSFPLVRMREREMDFYRFGGCVDYRGLMEKRRVPGVDKRLVLIIPTGKGHREIPLTDIHPSSVARMLGVSIDIVTERIRVLTRRREVGRTGIFLCETIPSTDCFEQALKEIASRNPAVRRRLD | not soluble
MGSDKIHHHHHHMNSPAMSPNTLGIDFGTSNSAAGLAVAGRPWLVELEPGETTLPTAVFFDSDSKKMRIGRSATRALIEGEEGRFMRALKSLLGTSLLYEKRRLGGVTMDFTDVIAHFLREVKTRAETATRMEFTHALSGRPVKFHSKDETRNARAEEDLRHCYKKAGFQDVTFMYEPEAALRAARPHPGIGLVVDIGGGTSDFTCFEQDATGGTRILASHGLRLGGTDFDRQISIDHVMPHLGRGAMIRNSFGEGSLPAPNRIFNDLATWQMIPFLYGLDTRRAARDLAQNAEDPTTLNRLVQVLEDELGHDLAFATEAGKIRANGSDDAGAQIDLRLIERGLSAALPRAALEASLAQMVREIQDEAKETLRLADVAPEAVTRCVMVGGSALLMAVRAALQDLCPTAEIETERALTAVADGLALETQDGAA | not soluble
MGSDKIHHHHHHMFSLFETFIVVYETKSFTLAGKYLFISQPTVTVRIKKLEEELKSTLFLRGKHQEIIPTEAAILFYPKAIAYLKKWEEDQAEVQKKSLAKHPFKIGVSHSAALSIMPGIFKVFEGELEHLDVEINMYDSEKVFELVANHDLHFGIIERLLISDQTETFPLFLDELVLAGNTDSETFFTRESGSGIGYYIKRYLKSAPSAQRNIVRMNSNEMIISHIKAGLGSSLISKSFLTDDIPYQELGSNYHREFLGVSFDEEKDPMIQKLISKIKKETEIH | not soluble
MQLRSVIAADHPALFALWSRTPGIRLRAEDAYPFFLAYLQRNPGLSLLVETEGEVIACLMAGHDGRRGYLQHLVVDPGYRGLGLARRMLDEVLARLAREGIGKSHVFVLDAAEEAQAFWRAQSDWERRKDIQVFSTREGHA | soluble
MVALSNALSRVFGSLAGYKFPSFIQKGINALYVKIFKIDLSEFEPLENYRSLNALFTRSLKKERPFDKSPNICIAPCDALITECAFLDNDSALQIKGMPYKAHELVGEINPLSPSFFYANFYLSPKDYHHYHAPCDLEILEARYFAGKLLPVNKPSLHKNNNLFVGNERVTLVAKDIQGNRLYFVAVGALNVGKMRFNFDKNIQTNAKARFTQTYSYNPPIKVKKGDNLGNFEMGSTIVLFIQNTAFKDLKEKNVKFGESIGEFHANLEHHHHHH | soluble
MKAPAFTEAKLQDPIPAKIYDKNGELVKTLDNGQRHEHVNLKDVPKSMKDAVLATEDNRFYEHGALDYKRLFGAIGKNLTGGFGSEGASTLTQQVVKDAFLSQHKSIGRKAQEAYLSYRLEQEYSKDDIFQVYLNKIYYSDGVTGIKAAAKYYFNKDLKDLNLAEEAYLAGLPQVPNNYNIYDHPKAAEDRKNTVLYLMHYHKRITDKQWEDAKKIDLKANLVNRTPEERQNIDTNQDSEYNSYVNFVKSELMNNKAFKDENLGNVLQSGIKIYTNMDKDVQKTLQNDVDNGSFYKNKDQQVGATILDSKTGGLVAISGGRDFKDVVNRNQATDPHPTGSSLKPFLAYGPAIENMKWATNHAIQDESSYQVDGSTFRNYDTKSHGTVSIYDALRQSFNIPALKAWQSVKQNAGNDAPKKFAAKLGLNYEGDIGPSEVLGGSASEFSPTQLASAFAAIANGGTYNNAHSIQKVVTRDGETIEYDHTSHKAMSDYTAYMLAEMLKGTFKPYGSAYGHGVSGVNMGAKTGTGTYGAETYSQYNLPDNAAKDVWINGFTPQYTMSVWMGFSKVKQYGENSFVGHSQQEYPQFLYENVMSKISSRDGEDFKRPSSVSGSIPSINVSGSQDNNTTNRSTHGGSDTSANSSGTAQSNNNTRSQQSRNSGGLTGIFN | soluble
